Paper PMC10333884, “Large‐scale phosphomimetic screening identifies phospho‐modulated motif‐based protein interactions” (Molecular Systems Biology, 2023)
Values belong to the binder of their own block, whether it stands above or below them.

How the values were obtained:
[1] = target: T1, TSG101 UEV (human), Q99816; test: FP; conditions: modification not given
T1 chain: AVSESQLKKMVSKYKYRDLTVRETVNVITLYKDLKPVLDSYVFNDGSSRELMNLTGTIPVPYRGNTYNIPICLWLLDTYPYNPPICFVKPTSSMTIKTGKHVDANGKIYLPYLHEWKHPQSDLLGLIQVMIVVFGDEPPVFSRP

[2] = target: SNX27 PDZ (human), Q96L92; test: FP; conditions: modification not given
GGA1 VHS (human), Q9UJY5 = target: T2, GGA1 VHS (human), Q9UJY5; test: fluorescence polarisation; displacement of a FITC-labelled probe peptide (5 nM in the measurement) from the protein domain (1-2 fold over the probe's KD) by a dilution series of unlabelled peptide; room temperature; 50 mM sodium phosphate pH 7.4; KD calculated from the displacement curve; for KPNA4 ARM one probe for each pocket
T2 chain: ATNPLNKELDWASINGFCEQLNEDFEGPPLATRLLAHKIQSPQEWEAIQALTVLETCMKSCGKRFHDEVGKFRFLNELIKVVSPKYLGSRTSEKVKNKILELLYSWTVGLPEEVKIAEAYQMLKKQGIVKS

RANBP2 RanBD4 (human) = test: as above
MAP1LC3A (human) = test: FP; conditions: modification not given

Binder: HSGNVEPTAPPYLQES [TMEM55A E]
IC50 [1]: 37 µM

Binder: GMVSETSFNGG [DAXX E]
IC50 [2]: 117 µM

Binder: INLFEKEKEMKKSPTS (modifications not checked) [GTSE1_(145–160), wild‐type, Q9NYZ3 145-160]
Kd (GGA1 VHS (human), Q9UJY5): 96 µM

Binder: QNLSREWHDVQVSSAY [TPD52L2 E]
IC50 (MAP1LC3A (human)): 223 µM

Binder: DLLESPDVGLLKLAS (modifications not checked) [JUN_(59–73), phosphomimetic (E), P05412 59-73]
Kd (GGA1 VHS (human), Q9UJY5): 450 µM

Binder: HSGNVTPTAPPYLQES [TMEM55A pS]
IC50 [1]: 34 µM

The next lines start with the values.

IC50 [2]: 427 µM
Binder: GMVSSTSFNGG [DAXX pS]

IC50 [1]: 232 µM
Binder: NGCSSPTAPLEPMSP [GJA1 E]

Kd (RANBP2 RanBD4 (human)): 470 µM
Binder: KYSDDTPLPEPSYKYN (modifications not checked) [DHX38_(260–275), phosphomimetic (E), Q92620 260-275]

Kd (GGA1 VHS (human), Q9UJY5): 199 µM
Binder: ETYYLSDEPLLGPPVG (modifications not checked) [GTSE1_(145–160), phosphomimetic (E), Q9NYZ3 145-160]

IC50 [1]: 420 µM
Binder: NGCSSPTAPLSPMSP [GJA1 pS]

IC50 (MAP1LC3A (human)): 60 µM
Binder: QNLSRSWHDVQVSSAY [TPD52L2 pS]
